This note sets out measurements from article PMC10776994, “The SDS22:PP1:I3 complex: SDS22 binding to PP1 loosens the active site metal to prime metal exchange” (The Journal of Biological Chemistry, 2023).

What all share (details): both partners purified
In experiment [1] the target is T1, SDS22_(56-360):PP1α_(7-330) complex (UniProt Q15435 56-360; P62136 7-330).
T1 construct: SDS22 (PPP1R7), residues 56-360; Protein phosphatase 1 alpha catalytic subunit (PP1α), residues 7-330; PP1 in this complex lacks the M1 metal; The same complex treated with EDTA (M2 metal extracted) is kept as this molecule and told apart by assay a4; the His6 tag of SDS22 was cleaved, so it is probably His6-PP1; also called SDS22:PP1; SDS22:PP1_(M2-metal-free) / metal-free …
In words: SPR; His6-PP1 constructs or SDS22_(56-360):PP1α_(7-330) captured on a Ni-NTA chip (NiHC200M), I3 and variants injected; 25 °C; 20 mM Tris pH 8.0, 500 mM NaCl, 0.5 mM TCEP, 0.05% Tween-20; one-to-one one-state or two-state fit. (In general: In SPR one partner is held on a chip, and binding of the other changes the refractive index at the surface.)

Experiment [2] has as its target T1, SDS22_(56-360):PP1α_(7-330) complex. The experiment in a line: SPR; as a3, but SDS22_(56-360):PP1α_(7-330) treated with 3 mM EDTA beforehand and dialysed to extract the M2 metal (metal-free PP1); one-state fit.
The target of another experiment is T2, PP1α_(7-330) R96A (UniProt P62136 7-330, R96A).
T2 construct: Protein phosphatase 1 alpha catalytic subunit (PP1α), residues 7-330; also called PP1_(R96A); PP1_(7-330) R96A
In words: SPR; His6-PP1 constructs or SDS22_(56-360):PP1α_(7-330) captured on a Ni-NTA chip (NiHC200M), I3 and variants injected; 25 °C; 20 mM Tris pH 8.0, 500 mM NaCl, 0.5 mM TCEP, 0.05% Tween-20; one-to-one one-state or two-state fit.

A further experiment addresses T3, PP1α_(7-330) R96A/H66K (UniProt P62136 7-330, R96A | H66K).
T3 construct: Protein phosphatase 1 alpha catalytic subunit (PP1α), residues 7-330; also called PP1_(7-330) R96A/H66K
The experiment is described as above.

The next experiment deals with T4, PP1α_(7-330) Y134A/H66K (UniProt P62136 7-330, Y134A | H66K).
T4 construct: Protein phosphatase 1 alpha catalytic subunit (PP1α), residues 7-330; also called PP1_(7-330) Y134A/H66K
The description is as above.

For the next experiment, the target named is T5, PP1α_(7-330) Y134A (UniProt P62136 7-330, Y134A).
T5 construct: Protein phosphatase 1 alpha catalytic subunit (PP1α), residues 7-330; also called PP1_(Y134A); PP1_(7-330) Y134A
The experiment is described as above.

Changes are numbered by the printed parent chain. Names and notes keep the numbering of the source.

T1 sequence (Q15435 56-360, chain 1 of 2): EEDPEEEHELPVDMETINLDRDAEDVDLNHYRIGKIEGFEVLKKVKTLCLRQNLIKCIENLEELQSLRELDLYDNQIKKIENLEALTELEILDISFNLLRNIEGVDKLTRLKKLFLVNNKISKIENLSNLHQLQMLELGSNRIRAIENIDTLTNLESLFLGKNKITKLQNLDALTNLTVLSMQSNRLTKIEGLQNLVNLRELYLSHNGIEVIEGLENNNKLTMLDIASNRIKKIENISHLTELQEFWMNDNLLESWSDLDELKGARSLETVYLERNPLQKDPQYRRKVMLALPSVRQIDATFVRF
T1 sequence (P62136 7-330, chain 2 of 2): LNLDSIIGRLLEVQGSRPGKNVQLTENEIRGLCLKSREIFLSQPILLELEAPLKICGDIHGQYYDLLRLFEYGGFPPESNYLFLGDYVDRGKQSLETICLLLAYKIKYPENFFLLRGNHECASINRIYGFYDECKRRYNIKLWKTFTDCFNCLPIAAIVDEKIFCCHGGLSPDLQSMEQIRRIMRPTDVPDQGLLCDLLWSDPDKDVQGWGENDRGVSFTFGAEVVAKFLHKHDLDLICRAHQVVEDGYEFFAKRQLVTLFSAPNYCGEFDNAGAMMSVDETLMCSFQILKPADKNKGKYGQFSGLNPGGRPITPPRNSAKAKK
T2 sequence (P62136 7-330 R96A): as the sequence (P62136 7-330, chain 2 of 2) above, with R90A counted along it
T5 sequence (P62136 7-330 Y134A): as the sequence (P62136 7-330, chain 2 of 2) above, with Y128A counted along it
T3 sequence (P62136 7-330 H66K/R96A): as the sequence (P62136 7-330, chain 2 of 2) above, with H60K, R90A counted along it
T4 sequence (P62136 7-330 H66K/Y134A): as the sequence (P62136 7-330, chain 2 of 2) above, with H60K, Y128A counted along it

B1: I3_(27-59) (Δ60–68) (domain or fragment, human, UniProt O60927 27-59, looked up)
chain: SLTIKLRKRKPEKKVEWTSDTVDNEHMGRRSSK
notes: made by a stop codon in the I3 27-68 construct; lacks the CCC motif; also called I3_(ΔCCC); CCC_(deletion); source: E. coli BL21 (DE3), purified (Ni-NTA, TEV, heat 95 °C, SEC); not shown: His6, N-terminal, cleaved; MBP, N-terminal, cleaved
As a reminder, the Kd is the constant that tells how readily two partners part at equilibrium. B1: the Kd in experiment [1] worked out at 396 ± 11 nM.

B2: I3_(27-68) (domain or fragment, human, UniProt O60927 27-68, looked up)
chain: SLTIKLRKRKPEKKVEWTSDTVDNEHMGRRSSKCCCIYEKPR
notes: source: E. coli BL21 (DE3), purified (Ni-NTA, TEV, heat 95 °C, SEC); not shown: His6, N-terminal, cleaved; MBP, N-terminal, cleaved
For B2, the Kd was 605 ± 32 nM in experiment [2]; 12 ± 1 nM with PP1α_(7-330) R96A; 7 ± 1 nM with PP1α_(7-330) R96A/H66K; 116 ± 12 nM in experiment [1]; 12 ± 3 nM with PP1α_(7-330) Y134A/H66K; 9 ± 2 nM with PP1α_(7-330) Y134A.

B3: I3_(27-68) C60S/C61S/C62S (domain or fragment, human, UniProt O60927 27-68, looked up)
chain: B2 chain with C34S, C35S, C36S
notes: also called I3_(27-68) SSS; SSS: I3_(27-68) CCC→SSS; source: E. coli BL21 (DE3), purified (Ni-NTA, TEV, heat 95 °C, SEC); not shown: His6, N-terminal, cleaved; MBP, N-terminal, cleaved
In turn, B3 gave a Kd in experiment [1] of 429 ± 30 nM.
